# Source: US20130216476A1 (LFB BIOTECHNOLOGIES, priority 2010, published 2013)
# Tests used:
# ARH-77 tumour cells = assay: Survival of SCID mice bearing ARH-77 tumour cells, anti-CD71 antibody with or without Velcade, section 3.2 (FIG. 3); assay type: in vivo
# Method: The injection was carried out between 24 to 72 hours after whole-body exposure of the mice to gamma radiation (1.8 Gy, ^60Co, INRA, Dijon, France).
# The day of injection of tumour cells is considered as day 0 (D0). […] The treatment with Velcade® commences on day 4 and therefore takes place on days D4, D7, D11, D14, D18, D25, D28 and D32.
# The 40 mice are separated into 5 groups.
# The injection volume of Velcade® (10 ml/kg) is adjusted to the […] of the individual animals.
# The mice surviving the experiment were sacrificed after 144 days following the injection of tumour cells. An autopsy was carried out on all the mice found dead or sacrificed during the experiment due to the presence of one of the pathological signs specified in the above section.
# Table 5 below compares the average survival of the mice in the 5 groups which died or were sacrificed before the end of the experiment due to the presence of the pathological signs specified above.
# [1] = molecular target: CD71 antigen (transferrin receptor) on the surface of ARH-77 myeloma cells (UniProt P02786); assay: QIFIKIT indirect immunofluorescence, flow cytometry on ARH-77 cells, control antibody at 5 µg/ml, anti-mouse IgG-FITC
# UniProt P02786, sequence (P02786 whole entry): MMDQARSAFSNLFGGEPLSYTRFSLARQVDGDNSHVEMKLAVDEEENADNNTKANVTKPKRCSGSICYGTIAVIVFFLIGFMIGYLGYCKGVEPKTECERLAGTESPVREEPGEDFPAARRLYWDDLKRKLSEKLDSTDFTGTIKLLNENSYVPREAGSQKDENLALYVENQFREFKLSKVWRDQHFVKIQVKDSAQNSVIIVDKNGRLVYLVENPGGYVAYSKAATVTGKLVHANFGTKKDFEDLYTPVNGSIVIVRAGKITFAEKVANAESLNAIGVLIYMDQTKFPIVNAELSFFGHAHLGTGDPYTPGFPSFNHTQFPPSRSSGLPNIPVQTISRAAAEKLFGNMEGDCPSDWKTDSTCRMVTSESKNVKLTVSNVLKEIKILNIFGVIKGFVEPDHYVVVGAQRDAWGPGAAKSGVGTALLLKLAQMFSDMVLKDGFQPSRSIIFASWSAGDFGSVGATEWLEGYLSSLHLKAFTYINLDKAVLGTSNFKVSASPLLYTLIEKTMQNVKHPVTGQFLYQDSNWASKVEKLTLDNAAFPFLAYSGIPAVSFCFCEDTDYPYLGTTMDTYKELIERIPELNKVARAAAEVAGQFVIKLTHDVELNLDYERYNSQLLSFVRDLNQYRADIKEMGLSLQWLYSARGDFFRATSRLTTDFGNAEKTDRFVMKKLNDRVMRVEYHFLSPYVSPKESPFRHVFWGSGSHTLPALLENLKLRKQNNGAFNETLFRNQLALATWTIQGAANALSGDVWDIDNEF
# [2] = molecular target: CD71 antigen (transferrin receptor) on the surface of ARH-77 myeloma cells (UniProt P02786); assay: QIFIKIT indirect immunofluorescence, flow cytometry on ARH-77 cells, control antibody at 5 µg/ml; BAE is background non-specific binding capacity
# [3] = molecular target: CD71 antigen (transferrin receptor) on the surface of ARH-77 myeloma cells (UniProt P02786); assay: flow cytometry on ARH-77 cells, control antibody at 10 µg/ml, anti-mouse IgG-PE
compound,measurement,setting,value
"CC(C)C[C@H](NC(=O)[C@H](Cc1ccccc1)NC(=O)c1cnccn1)B(O)O [Velcade®, bortezomib]",The number of mice that died before the end of the experiment,"ARH-77 tumour cells; 8 mice per group, end at day 144, doses as in Table 4",8
same,day of death or of sacrifice due to pathological signs after injection of ARH-77 cells,"ARH-77 tumour cells; 8 mice per group, antibodies 1.2 mg/mouse/inj twice weekly for 6 weeks, Velcade 0.5 mg/kg/inj twice weekly for 4 weeks",27 day
same,The survival median,ARH-77 tumour cells; doses as in Table 4,29.5
same,The survival average,"ARH-77 tumour cells; only mice that died or were sacrificed before the end of the experiment, doses as in Table 4",28.4 days
irrelevant antibody (anti-mouse IgG1) used as negative control,MFI,[1],5.2
same,BAE,[2],2290
negative control antibody IgG1 (MAT002),CD71+ %,[3],3.7%
same,CD71- %,[3],96.3%
same,MFI,[3],4.9
